Primed or numbered codes have the meaning given here. No end group written: not given here. Biotin′ = biotin label at the C-terminus
T1: hFc tagged monkey LAG-3 protein (cLAG-3-hFc protein) (monkey; human)
T1 construct: Made in HEK293 cells; also called monkey LAG-3 extracellular domain protein; not shown: human IgG Fc fragment (hFc) of the pCpC vector
T1 chain: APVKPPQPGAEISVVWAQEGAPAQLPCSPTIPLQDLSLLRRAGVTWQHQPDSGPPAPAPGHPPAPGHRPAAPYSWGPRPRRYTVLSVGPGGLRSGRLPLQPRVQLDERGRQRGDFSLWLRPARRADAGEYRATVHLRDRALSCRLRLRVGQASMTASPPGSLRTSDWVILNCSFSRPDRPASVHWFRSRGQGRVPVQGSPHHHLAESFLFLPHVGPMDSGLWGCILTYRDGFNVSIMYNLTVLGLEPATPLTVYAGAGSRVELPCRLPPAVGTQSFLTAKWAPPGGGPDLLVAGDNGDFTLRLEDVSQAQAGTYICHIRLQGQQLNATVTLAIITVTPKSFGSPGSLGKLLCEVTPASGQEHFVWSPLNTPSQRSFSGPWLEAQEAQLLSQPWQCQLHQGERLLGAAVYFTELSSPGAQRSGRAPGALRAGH

T2: mouse LAG-3 protein with hFc tag (mLAG-3-hFc protein) (mouse; human, UniProt Q61790 24-442)
T2 construct: Made in HEK293 cells; also called mouse LAG-3 extracellular domain protein; not shown: human IgG Fc fragment (hFc) of the pCpC vector
T2 sequence: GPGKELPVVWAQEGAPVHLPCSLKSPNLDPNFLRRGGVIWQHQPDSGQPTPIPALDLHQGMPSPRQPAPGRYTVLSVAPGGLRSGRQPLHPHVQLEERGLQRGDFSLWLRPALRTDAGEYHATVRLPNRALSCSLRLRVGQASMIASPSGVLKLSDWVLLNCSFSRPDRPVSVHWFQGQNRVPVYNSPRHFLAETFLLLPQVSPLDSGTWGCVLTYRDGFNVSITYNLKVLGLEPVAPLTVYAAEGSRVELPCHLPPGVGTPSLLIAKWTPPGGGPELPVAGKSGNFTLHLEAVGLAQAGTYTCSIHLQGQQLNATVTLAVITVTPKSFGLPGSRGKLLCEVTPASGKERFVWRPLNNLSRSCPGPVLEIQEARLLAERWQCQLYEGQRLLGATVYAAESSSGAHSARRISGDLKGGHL

T3: PAAPSSWGPRPRK-Biotin (human)
T3 construct: Overlapping peptide of the outer loop of human LAG-3; also called LAG-3 Extra cyclic peptide
T3 peptide: PAAPSSWGPRPRK-{Biotin′}

T4: AAPSSWGPRPRRK-Biotin (human)
T4 construct: Overlapping peptide of the outer loop of human LAG-3; also called LAG-3 Extra cyclic peptide
T4 peptide: AAPSSWGPRPRRK-{Biotin′}

T5: APSSWGPRPRRYK-Biotin (human)
T5 construct: Overlapping peptide of the outer loop of human LAG-3; also called LAG-3 Extra cyclic peptide
T5 peptide: APSSWGPRPRRYK-{Biotin′}

T6: PSSWGPRPRRYTK-Biotin (human)
T6 construct: Overlapping peptide of the outer loop of human LAG-3; also called LAG-3 Extra cyclic peptide
T6 peptide: PSSWGPRPRRYTK-{Biotin′}

T7: SSWGPRPRRYTVK-Biotin (human)
T7 construct: Overlapping peptide of the outer loop of human LAG-3; also called LAG-3 Extra cyclic peptide
T7 peptide: SSWGPRPRRYTVK-{Biotin′}

T8: SWGPRPRRYTVLK-Biotin (human)
T8 construct: Overlapping peptide of the outer loop of human LAG-3; also called LAG-3 Extra cyclic peptide
T8 peptide: SWGPRPRRYTVLK-{Biotin′}

T9: WGPRPRRYTVLSK-Biotin (human)
T9 construct: Overlapping peptide of the outer loop of human LAG-3; also called LAG-3 Extra cyclic peptide
T9 peptide: WGPRPRRYTVLSK-{Biotin′}

T10: GPPAAAPGHPLAPGPHPAAPSSWGPRPRRYK-biotin (full length of the outer loop) (human, biotin coupled to the C-terminus (K-biotin))
T10 construct: Printed over two rows (r36 and r37; again r54 and r55); also called LAG-3 Extra cyclic peptide
T10 peptide: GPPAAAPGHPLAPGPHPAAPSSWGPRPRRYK


What was measured:
[1] = target: T1, hFc tagged monkey LAG-3 protein …; assay: ELISA, cLAG-3-hFc coated; 0.6667 nM
Description: (§1) The plate was sealed with plastic film and incubated overnight at 4° C. The plate was washed 2 times with the plate washing solution (PBS+0.01% Tween20) on the next day, and added with the blocking solution (PBS+0.01% Tween20+1% BSA) and blocked at room temperature for 1-2 hours. The blocking solution was poured out, and the plate was added with 50-100 μl of the antibody sample to be tested to each well, incubated at 37° C. for 1-2 hours, and washed 2-3 times with a plate washing solution (PBS+0.01% Tween20). HRP (horseradish peroxidase) labeled secondary antibody was added, and the plate was incubated at 37° C. for 1-2 hours, and washed 2-3 times with a plate washing solution (PBS+0.01% Tween20). 100 μl of TMB substrate was added to each well. After incubated at room temperature for 15-30 minutes, the plate was added with 100 μl of stop solution (1.0N HCl) to each well.

[2] = target: T2, mouse LAG-3 protein with hFc tag …; assay: ELISA, mLAG-3-hFc coated; 66.6670 nM
Description: as §1

PAAPSSWGPRPRK-Biotin = target: T3, PAAPSSWGPRPRK-Biotin; assay: peptide scanning ELISA, biotin peptide on streptavidin
Description: (§2) Fifteen overlapping peptides including the full length of the outer loop sequence were prepared and biotin was coupled to each C-terminus. Enzyme-linked immunosorbent assay (ELISA) was used to detect the binding of antibodies to these peptides. Streptavidin (sigma, Cat #M5432) was diluted with PBS to a final concentration of 1.0 μg/ml, and then added as 100 μl per well to a 96-well ELISA plate. The plate was sealed with plastic film and incubated overnight at 4° C. The plate was washed 2 times with the plate washing solution (PBS+0.01% Tween20) on the next day, and added with the blocking solution (PBS+0.01% Tween20+1% BSA) and blocked at room temperature for 1-2 hours. The blocking solution was poured off, and biotinylated peptides was added to a final concentration of 1 ug/ml, as 100 ul per well to the 96-well ELISA plate, incubated at 37° C. for 1-2 hours, then washed with plate washing solution (PBS+0.01% Tween20)2-3 times. Then the antibody samples to be tested were incubated as 100 μl per well at 37° C. for 1-2 hours, and then the plate was washed 2-3 times with a plate washing solution (PBS+0.01% Tween20). HRP (horseradish peroxidase) labeled secondary antibody was added, and the plate was incubated at 37° C. for 1-2 hours, and washed 2-3 times with a plate washing solution (PBS+0.01% Tween20). 100 μl of TMB substrate was added to each well. After incubated at room temperature for 15-30 minutes, the plate was added with 100 μl of stop solution (1.0N HCl) to each well.

AAPSSWGPRPRRK-Biotin = target: T4, AAPSSWGPRPRRK-Biotin; assay: as above
Description: as §2

APSSWGPRPRRYK-Biotin = target: T5, APSSWGPRPRRYK-Biotin; assay: as above
Description: as §2

PSSWGPRPRRYTK-Biotin = target: T6, PSSWGPRPRRYTK-Biotin; assay: as above
Description: as §2

SSWGPRPRRYTVK-Biotin = target: T7, SSWGPRPRRYTVK-Biotin; assay: as above
Description: as §2

SWGPRPRRYTVLK-Biotin = target: T8, SWGPRPRRYTVLK-Biotin; assay: as above
Description: as §2

WGPRPRRYTVLSK-Biotin = target: T9, WGPRPRRYTVLSK-Biotin; assay: as above
Description: as §2

[3] = target: T10, GPPAAAPGHPLAPGPHPAAPSSWGPRPRRYK-biotin …; assay: as above
Description: as §2

Binder	OD450 [1] [OD450]	OD450 [2] [OD450]	binding result (PAAPSSWGPRPRK-Biotin)	binding result (AAPSSWGPRPRRK-Biotin)	binding result (APSSWGPRPRRYK-Biotin)	binding result (PSSWGPRPRRYTK-Biotin)	binding result (SSWGPRPRRYTVK-Biotin)	binding result (SWGPRPRRYTVLK-Biotin)	binding result (WGPRPRRYTVLSK-Biotin)	binding result [3]
556F6B8 (LAG-3 mouse-human chimeric antibody) (antibody, V domains shown, also called 556F8B8) VH: RVQLKQSGPGLVQPSQSLSITCTVSGFSLIKYGVHWVRQSPGEGLEWLGVIWRGGITDYNAAFMSRLSITKDNSKSQVFFKMNSLQADDTAIYYCAKWDGPLAMDYWGQGTSVTVSS VL: DIVMTQSHKFLSTSVGDRVSITCKASQDVGTTVAWYQQKPGQSPKLLIYWASTRHTGVPDRFTGSGSGTDFTLTISNVQSEDLADYFCQQYSSYPYTFGGGTKLEIK	3.7	1.08	–	–	–	–	–	–	–	–
405B8H3 (mouse antibody purified from hybridoma) (antibody, V domains shown, also called mAb103-405B8H3; 405B81-13) VH: QVQLQQSGAELVRPGASVTLSCKASGYTFTDYEMHWVKQTPVHGLEWIGATDPETGNSAYNQKFKGKAIMTADKSSSTAYMELRSLTSEDSAVYYCISTGWNDWGQGTSLTVSS VL: DIKMTQSPSSMYASLGERVTITCKASQDINSYLSWFQQKPGKSPKTLIYRADRLLDGVPSRFSGSGSGQDYSLTISSLEYGDMGIYYCLQYDEFPYTFGGGTKLEIK	–	–	binds	binds	binds	binds	binds	binds	binds	binds
405B8H3 (LAG-3 mouse-human chimeric antibody) (antibody, V domains shown, also called mouse-human chimeric antibody 405B8H3) VH: QVQLQQSGAELVRPGASVTLSCKASGYTFTDYEMHWVKQTPVHGLEWIGATDPETGNSAYNQKFKGKAIMTADKSSSTAYMELRSLTSEDSAVYYCISTGWNDWGQGTSLTVSS VL: DIKMTQSPSSMYASLGERVTITCKASQDINSYLSWFQQKPGKSPKTLIYRADRLLDGVPSRFSGSGSGQDYSLTISSLEYGDMGIYYCLQYDEFPYTFGGGTKLEIK	3.39	1.1	–	–	–	–	–	–	–	–
105F1E10 (mouse antibody purified from hybridoma) (antibody, V domains shown, also called mAb009-105F1E10) VH: EVQLQQSGPELVKPGASVKMSCRASGYTFTDFKMHWMKQSHGKSLEWIGYIAPNNGGTAYNQKFRGKATLTVNESSNTAYMELRSLTSEDSAVYYCVDWDDVDYWGQGTTLTVSS VL: DIKMTQSPSSMYASLGERVTITCKASQDINSYLSWFQQKSGKSPKTLIYRANRLVDGVPSRFSGSGSGQDYSLTISSLEYEDMGIYYCLQYVEFPLTFGAGTKLELK	–	–	binds	binds	binds	binds	binds	binds	binds	binds
105F1E10 (LAG-3 mouse-human chimeric antibody) (antibody, V domains shown) VH: EVQLQQSGPELVKPGASVKMSCRASGYTFTDFKMHWMKQSHGKSLEWIGYIAPNNGGTAYNQKFRGKATLTVNESSNTAYMELRSLTSEDSAVYYCVDWDDVDYWGQGTTLTVSS VL: DIKMTQSPSSMYASLGERVTITCKASQDINSYLSWFQQKSGKSPKTLIYRANRLVDGVPSRFSGSGSGQDYSLTISSLEYEDMGIYYCLQYVEFPLTFGAGTKLELK	3.38	0.54	–	–	–	–	–	–	–	–
409B11E12 (LAG-3 mouse-human chimeric antibody) (antibody, V domains shown) VH: QVQLQQSGAELVRPGASVTLSCKASGYTFTDYEMHWVKQTTVHGLEWIGATDPETSYSAYNQKFKGKAILTADKSSSTAYMELRSLTSEDSAVYYCIATGWNDWGQGTSLTVSS VL: DLKMTQSPSSMYASLGERVTITCKASQDINSYLSWFQQKPGKSPKTLIYRANRLLDGVPSRFSGSGSGQDYSLTISSLEYEDMGIYYCLQYDEFPYTFGGGTKLEIK	3.36	1.1	–	–	–	–	–	–	–	–
409B11E12 (mouse antibody purified from hybridoma) (antibody, V domains shown, also called mAb104-409B11E12) VH: QVQLQQSGAELVRPGASVTLSCKASGYTFTDYEMHWVKQTTVHGLEWIGATDPETSYSAYNQKFKGKAILTADKSSSTAYMELRSLTSEDSAVYYCIATGWNDWGQGTSLTVSS VL: DLKMTQSPSSMYASLGERVTITCKASQDINSYLSWFQQKPGKSPKTLIYRANRLLDGVPSRFSGSGSGQDYSLTISSLEYEDMGIYYCLQYDEFPYTFGGGTKLEIK	–	–	binds	binds	binds	binds	binds	binds	binds	binds
409D4E10 (mouse antibody purified from hybridoma) (antibody, V domains shown, also called mAb112-409D4E10) VH: QVQLQQSGAELVRPGASVTLSCKASGNTFTDYEMHWVKQTPVHGLEWIGATDPETDNTAYNQKFKGKAILTTDKSSSTAYMELRSLTSEDSAVYYCITSGWNDWGQGTSLTVSS VL: DIKMTQSPSSMYASLGERVTITCKASQDINSYLSWFQQKPGKSPKTLIYRANRLLDGVPSRFSGSGSGQDYSLTISSLEYEDMGIYYCLQYNEFPYTFGGGTKLEIK	–	–	binds	binds	binds	binds	binds	binds	binds	binds
409D4E10 (LAG-3 mouse-human chimeric antibody) (antibody, V domains shown) VH: QVQLQQSGAELVRPGASVTLSCKASGNTFTDYEMHWVKQTPVHGLEWIGATDPETDNTAYNQKFKGKAILTTDKSSSTAYMELRSLTSEDSAVYYCITSGWNDWGQGTSLTVSS VL: DIKMTQSPSSMYASLGERVTITCKASQDINSYLSWFQQKPGKSPKTLIYRANRLLDGVPSRFSGSGSGQDYSLTISSLEYEDMGIYYCLQYNEFPYTFGGGTKLEIK	3.78	1.06	–	–	–	–	–	–	–	–
